Results as given in paper PMC2824762, “Analysis of the role of PCNA-DNA contacts during clamp loading” (BMC Structural Biology, 2010).

How the values were obtained:
[1] = target: single-chain PCNA (three fused PCNA subunits) (Saccharomyces cerevisiae, UniProt P15873;P15873;P15873 1-257;2-257;2-258, R110S;Y114S); test: X-ray crystallography; 3.0 A; DNA tilted ~40 deg, partly disordered, refined as rigid body; pH 4.6; Anisotropy: 30 mM Tris pH 7.5, 200 mM NaCl, 2 mM DTT, 1 mM ATPgS, 10 mM MgCl2, 100 nM TAMRA-DNA, 1 uM PCNA, 25 C. Crystals: 100 mM Na acetate pH 4.6, 100 mM NaCl, 14% PEG 4K, 20 C; settings: protein: recombinant; tags: N-terminal 6-His, PreScission-cleavable; copies: 1;1;1; label: Cy5 at 5' end of primer strand; 5' overhang 4 nt on template, 10 bp duplex
[2] = target: the molecule itself; test: crystal structure; single-chain PCNA (three subunits joined on one chain) with a 10-base pair DNA; hanging drop, 100 mM Na acetate pH 4.6, 100 mM NaCl, 14% PEG 4K, 20°C; space group P2(1)2(1)2(1); 3.0 Å
[3] = target: T1, RFC (Replication Factor C clamp loader);PCNA wild-type (Saccharomyces cerevisiae;Saccharomyces …, UniProt P38630;P40348;P38629;P40339;P38251;P15873 1-861;1-353;2-340;1-323;1-354;1-258, |); test: fluorescence anisotropy; RFC titrated; 1 uM PCNA, 1 mM ATPgS, 10 mM MgCl2; Kd only in figure; Anisotropy: 30 mM Tris pH 7.5, 200 mM NaCl, 2 mM DTT, 1 mM ATPgS, 10 mM MgCl2, 100 nM TAMRA-DNA, 1 uM PCNA, 25 C. Crystals: 100 mM Na acetate pH 4.6, 100 mM NaCl, 14% PEG 4K, 20 C; settings: protein: recombinant;recombinant; tags: ;N-terminal 6-His, PreScission-cleaved; copies: 1;1;1;1;1;3; label: TAMRA at 5' end of template strand; 5' overhang 10 nt on template (3' recessed primer), 13 bp duplex
[4] = target: T2, RFC (Replication Factor C clamp loader);PCNA K20A/K77A/R80A/R149A (Saccharomyces cerevisiae;Saccharomyces …, UniProt P38630;P40348;P38629;P40339;P38251;P15873 1-861;1-353;2-340;1-323;1-354;1-258, |K20A;K77A;R80A;R149A); test: fluorescence anisotropy; RFC titrated; 1 uM mutant PCNA, 1 mM ATPgS, 10 mM MgCl2; affinity changes little vs wild-type PCNA; Kd only in figure; Anisotropy: 30 mM Tris pH 7.5, 200 mM NaCl, 2 mM DTT, 1 mM ATPgS, 10 mM MgCl2, 100 nM TAMRA-DNA, 1 uM PCNA, 25 C. Crystals: 100 mM Na acetate pH 4.6, 100 mM NaCl, 14% PEG 4K, 20 C; settings: protein: recombinant;recombinant; tags: ;N-terminal 6-His, PreScission-cleaved; copies: 1;1;1;1;1;3; label: TAMRA at 5' end of template strand; 5' overhang 10 nt on template (3' recessed primer), 13 bp duplex
[5] = target: T2, RFC (Replication Factor C clamp …); test: fluorescence anisotropy; RFC titrated; 1 uM mutant PCNA, 1 mM ATPgS, 10 mM MgCl2; Anisotropy: 30 mM Tris pH 7.5, 200 mM NaCl, 2 mM DTT, 1 mM ATPgS, 10 mM MgCl2, 100 nM TAMRA-DNA, 1 uM PCNA, 25 C. Crystals: 100 mM Na acetate pH 4.6, 100 mM NaCl, 14% PEG 4K, 20 C; settings: protein: recombinant;recombinant; tags: ;N-terminal 6-His, PreScission-cleaved; copies: 1;1;1;1;1;3; label: TAMRA at 5' end of template strand; 5' overhang 10 nt on template (3' recessed primer), 30 bp duplex
[6] = target: T1, RFC (Replication Factor C clamp …); test: fluorescence anisotropy; RFC titrated; 1 uM PCNA, 1 mM ATPgS, 10 mM MgCl2; Anisotropy: 30 mM Tris pH 7.5, 200 mM NaCl, 2 mM DTT, 1 mM ATPgS, 10 mM MgCl2, 100 nM TAMRA-DNA, 1 uM PCNA, 25 C. Crystals: 100 mM Na acetate pH 4.6, 100 mM NaCl, 14% PEG 4K, 20 C; settings: protein: recombinant;recombinant; tags: ;N-terminal 6-His, PreScission-cleaved; copies: 1;1;1;1;1;3; label: TAMRA at 5' end of template strand; 5' overhang 10 nt on template (3' recessed primer), 30 bp duplex

single-chain PCNA (three fused PCNA subunits), sequence (P15873 2-257 R110S/Y114S, one chain of several): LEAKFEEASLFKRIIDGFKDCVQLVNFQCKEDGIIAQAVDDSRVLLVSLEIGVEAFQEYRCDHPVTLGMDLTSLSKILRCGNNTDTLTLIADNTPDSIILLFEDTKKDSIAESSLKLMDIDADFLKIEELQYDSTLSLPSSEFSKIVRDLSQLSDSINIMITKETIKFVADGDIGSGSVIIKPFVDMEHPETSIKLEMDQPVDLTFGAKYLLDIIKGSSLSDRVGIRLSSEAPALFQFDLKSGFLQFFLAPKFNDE

B1: crystallization primer-template DNA (dsDNA)
DNA 1: TTTTATACGATGGG
DNA 2: CCCATCGTAT
binding result [1]: binds

B2: S. cerevisiae Proliferating Cell Nuclear Antigen (PCNA), wild type (natural protein)
chain: MLEAKFEEASLFKRIIDGFKDCVQLVNFQCKEDGIIAQAVDDSRVLLVSLEIGVEAFQEYRCDHPVTLGMDLTSLSKILRCGNNTDTLTLIADNTPDSIILLFEDTKKDRIAEYSLKLMDIDADFLKIEELQYDSTLSLPSSEFSKIVRDLSQLSDSINIMITKETIKFVADGDIGSGSVIIKPFVDMEHPETSIKLEMDQPVDLTFGAKYLLDIIKGSSLSDRVGIRLSSEAPALFQFDLKSGFLQFFLAPKFNDEE
notes: PCNA, S. cerevisiae; The subunit-with-subunit row from the single-chain PCNA structure is also written on this molecule; also called wild-type PCNA; yeast PCNA; source: E. coli BL21(DE3), purified (HisTrap FF, PreScission protease, HiTrap Q HP); not shown: His6, N-terminal, cleaved
stoichiometry N [2]: 3

B3: DNA-13 (dsDNA)
DNA 1: GAGCATTCAAGGACTTAGGTCTG
DNA 2: CAGACCTAAGTCC
binding result [3]: binds | binding result [4]: binds

B4: DNA-30 (dsDNA)
DNA 1: GAGCATTCAAGGACTTAGGTCTGTATTTATCTACCCACAA
DNA 2: TTGTGGGTAGATAAATACAGACCTAAGTCC
binding signal [5]: ~5 fold weaker Kd than with wild-type PCNA (nearly 5) | Kd [6]: ~100 nM
